The text below walks through data of article PMC4860839, “Structures of the APC–ARM domain in complexes with discrete Amer1/WTX fragments reveal that it uses a consensus mode to recognize its binding partners” (Cell Discovery, 2015).

B1: APC–ARM, human APC (407–751), N-terminally His-tagged (domain or fragment, UniProt P25054 407-751, looked up)
chain: LHLLEQIRAYCETCWEWQEAHEPGMDQDKNPMPAPVEHQICPAVCVLMKLSFDEEHRHAMNELGGLQAIAELLQVDCEMYGLTNDHYSITLRRYAGMALTNLTFGDVANKATLCSMKGCMRALVAQLKSESEDLQQVIASVLRNLSWRADVNSKKTLREVGSVKALMECALEVKKESTLKSVLSALWNLSAHCTENKADICAVDGALAFLVGTLTYRSQTNTLAIIESGGGILRNVSSLIATNEDHRQILRENNCLQTLLQHLKSHSLTIVSNACGTLWNLSARNPKDQEALWDMGAVSMLKNLIHSKHKMIAMGSAAALRNLMANRPAKYKDANIMSPGSSLPS
notes: human APC, armadillo repeat (ARM) domain, residues 407–751; source: E. coli BL21(DE3), purified (Ni2+-NTA, Superdex200)
B2: GST-Amer1 (380–531), full A2 (domain or fragment, human, UniProt Q5JTC6 380-531, looked up)
chain: EEEEEEEEVELEEEEEEVKEEEEDDDLEYLWETAQMYPRPNMNLGYHPTTSPGHHGYMLLDPVRSYPGLAPGELLTPQSDQQESAPNSDEGYYDSTTPGFEDDSGEALGLVRRDCLPRDSYSGDALYEFYEPDDSLENSPPGDDCLYDLHGR
notes: the methods print full A2: 400–531; also called full Amer1-A2; not shown: GST, N-terminal, kept
B3: GST-Amer1 (496–508), core A2 (domain or fragment, human)
chain: PRDSYSGDALYEF
notes: human Amer1/WTX residues 496–508; The results call the ITC samples peptides; the ITC methods name GST-Amer1 proteins; also called Amer1-A2; not shown: GST, N-terminal, kept
B4: GST-Amer1 (325–335), core A1 (domain or fragment, human)
chain: LTGCGDIIAEQ
notes: human Amer1/WTX residues 325–335; The results call the ITC samples peptides; the ITC methods name GST-Amer1 proteins; also called Amer1-A1; not shown: GST, N-terminal, kept
B5: GST-Amer1 (365–375), A4 (domain or fragment, human)
chain: YQGGGEEMALP
notes: human Amer1/WTX residues 365–375; also called Amer1-A4; not shown: GST, N-terminal, kept
B6: GST-Amer1 (280–368), full A1 (domain or fragment, human, UniProt Q5JTC6 280-368, looked up)
chain: SLEEPHSPETGEKVVAGEVNPPNGPVGDPLSLLFGDVTSLKSFDSLTGCGDIIAEQDMDSMTDSMASGGQRANRDGTKRSSCLVTYQGG
notes: the methods print full A1: 280–364; also called full Amer1-A1; not shown: GST, N-terminal, kept
B7: Amer1-A1 peptide (residues 325–335) (peptide)
peptide: H-LTGCGDIIAEQ-OH
notes: human Amer1/WTX residues 325–335; also called hAmer1-A1 (325–335); source: synthetic peptide (Appeptide Company), HPLC purified
B8: Amer1 (766–823, Δ778–794) (domain or fragment, human, UniProt Q5JTC6 766-823, looked up)
chain: TVSFSQALVEFTSFTQNLPELPPMVTFDIADVERDGEGKCE
notes: human Amer1/WTX residues 766–823 with residues 778–794 deleted; not shown: GST, N-terminal, kept
B9: Amer1-A4 peptide (residues 365–375) (peptide)
peptide: H-YQGGGEEMALP-OH
notes: human Amer1/WTX residues 365–375; also called hAmer1-A4 (365–375); source: synthetic peptide (Appeptide Company), HPLC purified
B10: APC–ARM, human APC (407–775), N-terminally His-tagged (domain or fragment, UniProt P25054 407-775, looked up)
chain: LHLLEQIRAYCETCWEWQEAHEPGMDQDKNPMPAPVEHQICPAVCVLMKLSFDEEHRHAMNELGGLQAIAELLQVDCEMYGLTNDHYSITLRRYAGMALTNLTFGDVANKATLCSMKGCMRALVAQLKSESEDLQQVIASVLRNLSWRADVNSKKTLREVGSVKALMECALEVKKESTLKSVLSALWNLSAHCTENKADICAVDGALAFLVGTLTYRSQTNTLAIIESGGGILRNVSSLIATNEDHRQILRENNCLQTLLQHLKSHSLTIVSNACGTLWNLSARNPKDQEALWDMGAVSMLKNLIHSKHKMIAMGSAAALRNLMANRPAKYKDANIMSPGSSLPSLHVRKQKALEAELDAQHLSETFDN
notes: human APC, ARM domain, residues 407–775; source: E. coli BL21(DE3), purified (Ni2+-NTA, Superdex200)
B11: Amer1-A2 peptide (residues 496–508) (peptide)
peptide: H-PRDSYSGDALYEF-OH
notes: human Amer1/WTX residues 496–508; also called hAmer1-A2 (496–508); source: synthetic peptide (Appeptide Company), HPLC purified
B12: GST-Amer1 (766–823), core A3 (domain or fragment, human, UniProt Q5JTC6 766-823, looked up)
chain: TVSFSQALVEFTSNGNLFSSMSCSSDSDSSFTQNLPELPPMVTFDIADVERDGEGKCE
notes: human Amer1/WTX residues 766–823; not shown: GST, N-terminal, kept
B13: GST-Amer1 (716–834), A3 (domain or fragment, human, UniProt Q5JTC6 716-834, looked up)
chain: TCLMQLFQSDAMFEPDMQEANFGGSPRRAYPTYSPPEDPEEEEVEKEGNATVSFSQALVEFTSNGNLFSSMSCSSDSDSSFTQNLPELPPMVTFDIADVERDGEGKCEENPEFHNDEDL
notes: human Amer1/WTX residues 716–834; The methods list only A3: 766–823 among the GST constructs; not shown: GST, N-terminal, kept

What all share (settings): both partners purified
The target of assay [1] is B2. The experiment in a line: ITC; ITC200, 25 °C; 50 mM HEPES pH 7.5, 300 mM NaCl, 1 mM EDTA; typically 200 μM APC–ARM injected into 20 μM GST-Amer1 fragment, or 1 mM GST-Amer1 fragment into 80 μM APC–ARM; single-site model. A general note: In ITC the heat of successive injections is recorded.
Assay [2] addresses B3. Described as above.
The assay “GST-Amer1 (365–375), A4” concerns the target B5. Described as above.
The target of assay [3] is B4. The assay is described as above.
The target in assay [4] is B6. The description is as above.
The target of assay [5] is B1. The description is as above.
The target of assay [6] is B1. The experiment in a line: crystal structure; APC–ARM mixed with synthetic Amer1 peptide at 1:1.5; hanging drop, 14 °C.
In assay [7] the target is B10. The assay is described as follows: ITC; ITC200, 25 °C; 50 mM HEPES pH 7.5, 300 mM NaCl, 1 mM EDTA; typically 200 μM APC–ARM injected into 20 μM GST-Amer1 fragment, or 1 mM GST-Amer1 fragment into 80 μM APC–ARM; single-site model.
Assay [8] concerns the target B8. The assay is described as above.
Assay [9] addresses B12. The description is as above.
The assay “GST-Amer1 (716–834), A3” has as its target B13. The description is as above.

As to B1, the dH is -3.5 ± 0.1 kcal/mol in [1]; -5.2 ± 0.2 kcal/mol in [2]; -3.5 ± 0.1 kcal/mol with GST-Amer1 (365–375), A4; -0.9 ± 0.1 kcal/mol in assay [3]; -1.12 ± 0.55 kcal/mol in assay [4]. For the same molecule, the stoichiometry N (usually a count of units in the complex or per binding partner) in assay [1] amounted to 0.92 ± 0.02 Amer1/APC ratio; in [2], 1.08 ± 0.02 Amer1/APC ratio; with GST-Amer1 (365–375), A4 it was 0.95 ± 0.02 Amer1/APC ratio; in [3], 0.9 ± 0.08 Amer1/APC ratio; in [4], 0.97 ± 0.39 Amer1/APC ratio.

As for B2, binding in assay [5] was put at a Kd of 500 ± 100 nM.

Regarding B3, binding in assay [5] was put at a Kd of 1100 ± 200 nM.

As for B4, the dissociation constant Kd (usually a measure of binding affinity in units of concentration) in assay [5] stood at 14400 ± 4300 nM. Compared with the last molecule, the Kd is about 13-fold higher.

As to B5, the Kd in [5] was found to be 2000 ± 300 nM.

Take B6: in [5], the Kd is 8000 ± 4100 nM.

As for B7, the binding result in assay [6] is “binds”.

In the case of B8, the affinity in assay [7], expressed as Kd, was 220 ± 110 nM.

Regarding B9, the binding result in assay [6] is “binds”.

For the molecule B10, the dH was -1.39 ± 0.06 kcal/mol in assay [8]; -1.82 ± 0.04 kcal/mol in assay [9]; -1.82 ± 0.06 kcal/mol with GST-Amer1 (716–834), A3. Besides, the “stoichiometry N” value in assay [8] was found to be 1.02 ± 0.03 Amer1/APC ratio; in assay [9] it was 1 ± 0.02 Amer1/APC ratio; with GST-Amer1 (716–834), A3, 0.99 ± 0.02 Amer1/APC ratio.

For the molecule B11, the binding result in assay [6] is recorded as “binds”.

Consider B12, for which, in [7], binding was put at a Kd of 270 ± 70 nM.

In the case of B13, the equilibrium dissociation constant (Kd) in [7] is 130 ± 60 nM.
